Measurements: patent US10927178B2, “Anti-CXCR4 antibodies and antibody-drug conjugates” (PFIZER INC., priority 2013, dated 2021)

How the values were obtained:
OPM-2-Luc MM cells = test: Systemic OPM-2-Luc multiple myeloma model; assay type: in vivo, mouse
Experimental: Humanized anti-CXCR4 antibody h3G10.1.91.A58B was tested for its ability to increase survival and reduce tumor burden of NSG mice using a disseminated/systemic intravenous model of MM. The human MM cancer line OPM-2 was transduced with the luciferase gene (OPM-2-LUC) to allow for “in life” monitoring of tumor burden over time. Cells were cultured at 37° C. in a 5% CO2 incubator in RPMI 1640 media containing 10% fetal bovine serum with 0.5 μg/mL puromycin for luciferase expression selection. 4-6 week old NSG female mice were injected intravenously with OPM-2-Luc cells (5×10^6/animal).
On Day 8 post-cell implantation mice were randomized into three treatment groups (10 animals per group) based on total body bioluminescence intensity. Weekly subcutaneous (s.c.) antibody treatment at 10 mg/kg in a solution of sterile PBS was initiated and carried out for 5 weeks. Melphalan, one of the approved drugs for treatment of multiple myeloma patients, was dosed at 1 mg/kg, twice/week carried out for 3 weeks. Tumor burden was assessed using Xenogen IVIS 200 imaging system. Mice were imaged every 7 days in a ventral position and whole body bioluminescence was determined using Xenogen Living Image software. When mice began to show hind limb paralysis or reached other humane endpoints they were euthanized. Both tumor burden (by bioluminescence) and survival were evaluated as endpoints.

[1] = biological target: T1, human CXCR4-enriched lipoparticles (Homo sapiens, UniProt P61073); test: Biosensor affinity measurement of Fabs on CXCR4-enriched lipoparticles; assay type: binding; conditions: Fab; kinetic titration
T1 construct: purchased Integral Molecular, Philadelphia Pa; LEV101
Experimental: One way of determining binding affinity of antibodies to CXCR4 is by measuring binding affinity of monofunctional Fab fragments of the antibody. To obtain monofunctional Fab fragments, an antibody (for example, IgG) can be cleaved with papain or expressed recombinantly. […] Biotinylated WGA can be coated on the SA chip to facilitate capturing Lipoparticles containing CXCR4 proteins. […] J. Mol. Recognit. 12, 279-284 (1999).
The concentrations of the Fab proteins are determined by ELISA and/or SDS-PAGE electrophoresis using a Fab of known concentration (as determined by amino acid analysis) as a standard. Kinetic association rates (kon) and dissociation rates (koff) are obtained simultaneously by fitting the data globally to a 1:1 Langmuir binding model (Karlsson, R. Roos, H. Fagerstam, L. Petersson, B. (1994). Methods Enzymology 6. 99-110) using the BIAevaluation program. Equilibrium dissociation constant (KD) values are calculated as koff/kon.
The binding affinity of each Fab was determined using human CXCR4-enriched lipoparticles (LEV101, Integral Molecular, Philadelphia Pa.). Biotinylated WGA (Sigma Aldrich, St. Louis Mo.)) can be coated on the SA chip to facilitate capturing lipoparticles containing CXCR4 proteins. […] J. Mol. Recognit. 12, 279-284 (1999).

[2] = biological target: T2, CXCR4 (CXCR4-expressing HPB-ALL cells) (Homo sapiens, UniProt P61073); test: Flow cytometry binding of humanized 3G10 Fabs to HPB-ALL cells (Example 2); conditions: for MFI 0.25 μg/ml: Fab 0.25 μg/ml; for MFI 2.5 μg/ml: Fab 2.5 μg/ml
T2 construct: endogenous in cells; host or cells: HPB-ALL (human T cell leukemia)
Experimental: 150,000 cells were incubated with various h3G10 Fabs at either 2.5 or 0.25 μg/mL in 100 uL binding buffer (PBS+0.5% BSA), followed by incubation with APC-conjugated goat anti-human Fab-specific secondary antibody from R&D systems.

[3] = NSG mice, OPM-2-Luc i.v., antibody 10 mg/kg s.c. weekly for 5 weeks, Melphalan 1 mg/kg twice/week for 3 weeks
[4] = antibody 10 mg/kg s.c. weekly 5 weeks, Melphalan 1 mg/kg twice/week 3 weeks, isotype control 33.5 days

T2 sequence (P61073 whole entry): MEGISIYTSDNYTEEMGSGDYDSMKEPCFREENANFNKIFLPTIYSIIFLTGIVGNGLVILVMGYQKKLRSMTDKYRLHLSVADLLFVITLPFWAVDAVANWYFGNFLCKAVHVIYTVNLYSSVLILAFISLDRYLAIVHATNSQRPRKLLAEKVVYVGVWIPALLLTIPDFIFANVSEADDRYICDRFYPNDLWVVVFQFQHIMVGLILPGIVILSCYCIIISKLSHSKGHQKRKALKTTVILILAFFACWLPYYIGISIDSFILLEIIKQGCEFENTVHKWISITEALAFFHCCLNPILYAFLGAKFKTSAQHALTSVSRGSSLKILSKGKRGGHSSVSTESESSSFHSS
T1 sequence (P61073 whole entry): as above

Molecule | Ka (1/MS) [1] | Kd [1] [s⁻¹] | MFI 0.25 μg/ml [2] | MFI 2.5 μg/ml [2] | also measured
N[C@@H](Cc1ccc(N(CCCl)CCCl)cc1)C(=O)O [Melphalan, reference compound] |  |  |  |  | median survival (OPM-2-Luc MM cells; [3]): 36 days; median survival (OPM-2-Luc MM cells; [4]): 36 days
h3G10.1.91.A58B: humanized anti-CXCR4 antibody; VH h3G10.1.91 SEQ ID NO:33, VL h3G10.A58B SEQ ID NO:73 (antibody, V domains shown) VH: EVQLVESGGGLVQPGGSLRLSCAASGFTFSDYYMSWVRQAPGKGLEWVGFIRHKANFETTEYSTSVKGRFTISRDDSKNSLYLQMNSLKTEDTAVYYCARDLPGFAYWGQGTLVTVSS VL: DIVMTQSPDSLAVSLGERATINCKSSQSLFNSHTRKNYLAWYQQKPGQPPKLLIYWASARGSGVPDRFSGSGSGTDFTLTISSLQAEDVAVYYCKQSFNLRTFGGGTKVEIK |  |  |  |  | tumor growth (bioluminescence) compared to isotype control antibody (OPM-2-Luc MM cells; 10 mg/kg s.c. weekly for 5 weeks, p<0.0001 on Day 30): significantly inhibited tumor growth; median survival (OPM-2-Luc MM cells; [3]): Undefined; median survival (OPM-2-Luc MM cells; [4]): undefined
h3G10.A57 VH/h3G10 VL: Fab; VH SEQ ID NO:23, VL SEQ ID NO:47 (antibody, V domains shown, Fab) VH: EVQLVESGGGLVQPGGSLRLSCAASGFTFSDYYMSWVRQAPGKGLEWVGFIRHKANFYTTEYSTSVKGRFTISRDDSKNSLYLQMNSLKTEDTAVYYCARDLPGFAYWGQGTLVTVSS VL: DIVMTQSPDSLAVSLGERATINCKSSQSLFNSRTRKNYLAWYQQKPGQPPKLLIYWASARESGVPDRFSGSGSGTDFTLTISSLQAEDVAVYYCKQSFNLRTFGGGTKVEIK | 1.17E+06 1/MS | 0.00143 |  |  | 
h3G10.B44 VH/h3G10.B12 VL: Fab; VH SEQ ID NO:25, VL B12 (probably B12A, SEQ ID NO:61) (antibody, V domains shown) VH: EVQLVESGGGLVQPGGSLRLSCAASGFTFSDYYMSWVRQAPGKGLEWVSFIRHKANFYTTEYSTSVKGRFTISRDNSKNTLYLQMNSLRAEDTAVYYCAKDLPGFAYWGQGTLVTVSS VL: DIVMTQSPDSLAVSLGERATINCKSSQSLFNSRTRKNYLLWYQQKPGQPPKLLIYWASARESGVPDRFSGSGSGTDFTLTISSLQAEDVAVYYCKQSFRLRTFGGGTKVEIK |  |  | 2094 | 8127 | 
h3G10.A57 VH/h3G10.B12 VL: Fab; VH SEQ ID NO:23, VL B12 (probably B12A, SEQ ID NO:61) (antibody, V domains shown, Fab) VH: EVQLVESGGGLVQPGGSLRLSCAASGFTFSDYYMSWVRQAPGKGLEWVGFIRHKANFYTTEYSTSVKGRFTISRDDSKNSLYLQMNSLKTEDTAVYYCARDLPGFAYWGQGTLVTVSS VL: DIVMTQSPDSLAVSLGERATINCKSSQSLFNSRTRKNYLLWYQQKPGQPPKLLIYWASARESGVPDRFSGSGSGTDFTLTISSLQAEDVAVYYCKQSFRLRTFGGGTKVEIK |  |  | 2921 | 6830 | 
h3G10.B44 VH/h3G10.2.72 VL: Fab; VH SEQ ID NO:25, VL SEQ ID NO:49 (antibody, V domains shown, Fab) VH: EVQLVESGGGLVQPGGSLRLSCAASGFTFSDYYMSWVRQAPGKGLEWVSFIRHKANFYTTEYSTSVKGRFTISRDNSKNTLYLQMNSLRAEDTAVYYCAKDLPGFAYWGQGTLVTVSS VL: DIVMTQSPDSLAVSLGERATINCKSSQSLFNSRTRKNYLAWYQQKPGQPPKLLIYWASARESGVPDRFSGSGSGTDFTLTISSLQAEDVAVYYCKQSFRLRTFGGGTKVEIK |  |  | 4513 | 8908 | 
h3G10.B44 VH/h3G10.A11 VL: Fab; VH SEQ ID NO:25, VL A11 (probably A11A, SEQ ID NO:51) (antibody, V domains shown, Fab) VH: EVQLVESGGGLVQPGGSLRLSCAASGFTFSDYYMSWVRQAPGKGLEWVSFIRHKANFYTTEYSTSVKGRFTISRDNSKNTLYLQMNSLRAEDTAVYYCAKDLPGFAYWGQGTLVTVSS VL: DIVMTQSPDSLAVSLGERATINCKSAQSLFNSRTRKNYLAWYQQKPGQPPKLLIYWASARESGVPDRFSGSGSGTDFTLTISSLQAEDVAVYYCKQSFRLRTFGGGTKVEIK |  |  | 3792 | 8306 | 
h3G10.A57 VH/h3G10.2.72 VL: Fab; VH SEQ ID NO:23, VL SEQ ID NO:49 (antibody, V domains shown, Fab) VH: EVQLVESGGGLVQPGGSLRLSCAASGFTFSDYYMSWVRQAPGKGLEWVGFIRHKANFYTTEYSTSVKGRFTISRDDSKNSLYLQMNSLKTEDTAVYYCARDLPGFAYWGQGTLVTVSS VL: DIVMTQSPDSLAVSLGERATINCKSSQSLFNSRTRKNYLAWYQQKPGQPPKLLIYWASARESGVPDRFSGSGSGTDFTLTISSLQAEDVAVYYCKQSFRLRTFGGGTKVEIK | 1.10E+06 1/MS | 0.0013 |  |  | 
h3G10.2.37 VH/h3G10.A58B VL: Fab; VH SEQ ID NO:35, VL SEQ ID NO:73 (antibody, V domains shown, Fab) VH: EVQLVESGGGLVQPGGSLRLSCAASGFTFSDYYMSWVRQAPGKGLEWVGFIRHKANFYTREYSTSVKGRFTISRDDSKNSLYLQMNSLKTEDTAVYYCARDLPGFAYWGQGTLVTVSS VL: DIVMTQSPDSLAVSLGERATINCKSSQSLFNSHTRKNYLAWYQQKPGQPPKLLIYWASARGSGVPDRFSGSGSGTDFTLTISSLQAEDVAVYYCKQSFNLRTFGGGTKVEIK | 7.97E+05 1/MS | 0.000449 |  |  | 
h3G10 VH/h3G10 VL: Fab; VH SEQ ID NO:21, VL SEQ ID NO:47 (antibody, V domains shown, Fab) VH: EVQLVESGGGLVQPGGSLRLSCAASGFTFSDYYMSWVRQAPGKGLEWVGFIRHKANGYTTEYSTSVKGRFTISRDDSKNSLYLQMNSLKTEDTAVYYCARDLPGFAYWGQGTLVTVSS VL: DIVMTQSPDSLAVSLGERATINCKSSQSLFNSRTRKNYLAWYQQKPGQPPKLLIYWASARESGVPDRFSGSGSGTDFTLTISSLQAEDVAVYYCKQSFNLRTFGGGTKVEIK | 1.60E+06 1/MS | 0.003 |  |  | 
h3G10.1.91 VH/h3G10.A58B VL: Fab; VH SEQ ID NO:33, VL SEQ ID NO:73 (antibody, V domains shown, Fab) VH: EVQLVESGGGLVQPGGSLRLSCAASGFTFSDYYMSWVRQAPGKGLEWVGFIRHKANFETTEYSTSVKGRFTISRDDSKNSLYLQMNSLKTEDTAVYYCARDLPGFAYWGQGTLVTVSS VL: DIVMTQSPDSLAVSLGERATINCKSSQSLFNSHTRKNYLAWYQQKPGQPPKLLIYWASARGSGVPDRFSGSGSGTDFTLTISSLQAEDVAVYYCKQSFNLRTFGGGTKVEIK | 8.03E+05 1/MS | 0.000286 |  |  | 
h3G10.A57 VH/h3G10.A11 VL: Fab; VH SEQ ID NO:23, VL A11 (probably A11A, SEQ ID NO:51) (antibody, V domains shown, Fab) VH: EVQLVESGGGLVQPGGSLRLSCAASGFTFSDYYMSWVRQAPGKGLEWVGFIRHKANFYTTEYSTSVKGRFTISRDDSKNSLYLQMNSLKTEDTAVYYCARDLPGFAYWGQGTLVTVSS VL: DIVMTQSPDSLAVSLGERATINCKSAQSLFNSRTRKNYLAWYQQKPGQPPKLLIYWASARESGVPDRFSGSGSGTDFTLTISSLQAEDVAVYYCKQSFRLRTFGGGTKVEIK |  |  | 1251 | 4521 | 
